{"source": "patent US20220332804A1", "about": "(CSL INNOVATION, published 2022)", "test_in_all_cases": "SPR, KD relative to WT C2;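 also: biacore SPR at 37 °C, anti-C2 mAbs captured via immobilised goat anti-human IgG, C2 alanine or serine surface mutants as analytes, 1:1 model fitted, double-referenced sensograms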", "key": {"human C2 I272A": {"biological_target": "T1, human C2 I272A (human, UniProt P06681 21-752)", "T1 sequence": "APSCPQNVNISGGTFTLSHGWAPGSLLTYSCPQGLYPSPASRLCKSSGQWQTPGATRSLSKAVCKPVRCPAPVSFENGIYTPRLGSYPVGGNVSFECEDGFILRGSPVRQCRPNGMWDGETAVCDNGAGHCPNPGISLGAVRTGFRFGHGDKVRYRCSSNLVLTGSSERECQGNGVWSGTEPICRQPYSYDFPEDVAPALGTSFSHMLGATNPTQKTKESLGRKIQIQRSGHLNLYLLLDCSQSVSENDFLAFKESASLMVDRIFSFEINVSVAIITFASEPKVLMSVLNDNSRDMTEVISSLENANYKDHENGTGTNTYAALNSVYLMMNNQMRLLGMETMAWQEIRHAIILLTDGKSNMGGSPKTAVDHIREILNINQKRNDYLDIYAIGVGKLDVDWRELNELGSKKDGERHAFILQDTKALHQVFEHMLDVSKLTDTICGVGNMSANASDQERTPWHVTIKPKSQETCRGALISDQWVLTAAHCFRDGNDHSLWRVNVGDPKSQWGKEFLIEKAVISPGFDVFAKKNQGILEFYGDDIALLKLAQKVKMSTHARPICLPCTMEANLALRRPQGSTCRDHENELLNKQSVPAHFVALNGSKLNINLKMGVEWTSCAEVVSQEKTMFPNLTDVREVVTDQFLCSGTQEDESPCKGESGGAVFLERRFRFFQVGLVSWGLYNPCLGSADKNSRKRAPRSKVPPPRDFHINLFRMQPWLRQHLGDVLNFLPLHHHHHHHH"}, "human C2 S473A": {"biological_target": "T2, human C2 S473A (human, UniProt P06681 21-752)", "T2 sequence": "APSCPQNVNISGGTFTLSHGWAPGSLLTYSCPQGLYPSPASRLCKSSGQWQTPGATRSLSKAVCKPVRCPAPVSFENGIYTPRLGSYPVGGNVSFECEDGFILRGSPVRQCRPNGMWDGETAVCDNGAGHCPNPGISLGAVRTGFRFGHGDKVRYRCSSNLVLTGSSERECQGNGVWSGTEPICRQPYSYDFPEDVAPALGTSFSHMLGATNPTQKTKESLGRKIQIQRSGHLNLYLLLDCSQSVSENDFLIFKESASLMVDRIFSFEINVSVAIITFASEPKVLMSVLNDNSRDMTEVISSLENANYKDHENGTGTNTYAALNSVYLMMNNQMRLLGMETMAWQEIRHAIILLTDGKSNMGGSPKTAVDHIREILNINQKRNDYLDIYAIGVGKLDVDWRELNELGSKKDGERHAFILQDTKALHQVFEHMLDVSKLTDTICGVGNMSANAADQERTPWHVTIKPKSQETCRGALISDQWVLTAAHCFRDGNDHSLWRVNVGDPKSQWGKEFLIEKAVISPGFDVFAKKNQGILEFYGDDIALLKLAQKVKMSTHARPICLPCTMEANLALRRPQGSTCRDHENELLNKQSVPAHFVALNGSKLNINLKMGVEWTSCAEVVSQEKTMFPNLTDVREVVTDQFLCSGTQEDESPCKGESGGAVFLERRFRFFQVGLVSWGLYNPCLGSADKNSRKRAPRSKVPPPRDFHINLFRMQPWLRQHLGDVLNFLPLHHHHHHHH"}, "human C2 N471A": {"biological_target": "T3, human C2 N471A (human, UniProt P06681 21-752)", "T3 sequence": "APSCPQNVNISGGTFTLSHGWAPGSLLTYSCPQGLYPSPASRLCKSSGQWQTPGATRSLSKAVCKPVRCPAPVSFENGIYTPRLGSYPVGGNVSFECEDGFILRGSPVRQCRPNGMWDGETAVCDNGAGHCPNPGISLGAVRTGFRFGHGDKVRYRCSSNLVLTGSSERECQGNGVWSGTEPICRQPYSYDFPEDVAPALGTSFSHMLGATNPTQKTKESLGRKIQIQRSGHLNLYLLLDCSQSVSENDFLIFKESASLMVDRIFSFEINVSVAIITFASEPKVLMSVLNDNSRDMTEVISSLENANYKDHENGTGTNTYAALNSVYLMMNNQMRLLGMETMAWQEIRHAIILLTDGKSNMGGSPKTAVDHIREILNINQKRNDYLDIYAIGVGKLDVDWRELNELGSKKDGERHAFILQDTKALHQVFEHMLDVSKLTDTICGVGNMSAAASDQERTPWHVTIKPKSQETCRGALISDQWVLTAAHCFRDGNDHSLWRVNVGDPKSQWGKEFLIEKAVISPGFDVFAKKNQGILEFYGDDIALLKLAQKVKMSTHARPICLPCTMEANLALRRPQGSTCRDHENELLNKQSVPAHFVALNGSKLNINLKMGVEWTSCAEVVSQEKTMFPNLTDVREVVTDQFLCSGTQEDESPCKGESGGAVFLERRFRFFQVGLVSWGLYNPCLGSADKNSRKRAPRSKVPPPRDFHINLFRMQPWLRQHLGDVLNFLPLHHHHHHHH"}, "human C2 K711A": {"biological_target": "T4, human C2 K711A (human, UniProt P06681 21-752)", "T4 sequence": "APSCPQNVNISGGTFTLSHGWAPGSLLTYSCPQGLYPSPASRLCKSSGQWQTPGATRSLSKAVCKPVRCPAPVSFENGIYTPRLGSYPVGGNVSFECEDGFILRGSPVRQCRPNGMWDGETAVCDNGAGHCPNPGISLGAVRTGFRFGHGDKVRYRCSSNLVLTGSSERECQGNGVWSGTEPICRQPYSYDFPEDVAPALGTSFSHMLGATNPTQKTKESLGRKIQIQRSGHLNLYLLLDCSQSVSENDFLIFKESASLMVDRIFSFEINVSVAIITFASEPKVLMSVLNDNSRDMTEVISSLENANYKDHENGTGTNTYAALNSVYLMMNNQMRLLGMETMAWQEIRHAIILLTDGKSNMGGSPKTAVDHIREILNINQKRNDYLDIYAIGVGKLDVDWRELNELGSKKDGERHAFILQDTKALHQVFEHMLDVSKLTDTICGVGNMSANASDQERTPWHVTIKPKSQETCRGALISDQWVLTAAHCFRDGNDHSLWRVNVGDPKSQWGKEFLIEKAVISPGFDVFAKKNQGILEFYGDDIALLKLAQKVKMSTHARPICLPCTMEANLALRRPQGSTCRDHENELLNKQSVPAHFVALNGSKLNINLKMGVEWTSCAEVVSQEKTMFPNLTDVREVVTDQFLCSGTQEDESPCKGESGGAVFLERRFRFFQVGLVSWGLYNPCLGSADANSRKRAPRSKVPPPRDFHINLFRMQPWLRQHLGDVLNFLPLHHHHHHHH"}}}
{"binder": "RF16-226 (antibody, human IgG4 S228P, lambda, pH-dependent anti-C2 antibody from a phage display library; also called WT) heavy: not shown light: SYELTQPPSVSVSPGQTARITCSGDALTSKYVAWYQQKSGLAPLLVIYEDTRRPSGIPAKFSGSSSGSVATLTISGAHGDDEADYYCYSTDASGHQRVFGGGTKLTVLSQPKAAPSVTLFPPSSEELQANKATLVCLISDFYPGAVTVAWKADGSPVKAGVETTKPSKQSNNKYAASSYLSLTPEQWKSHRSYSCQVTHEGSTVEKTVAPTECS", "values": [{"measurement": "Fold diff", "setting": "human C2 I272A", "result": 1, "unit": "fold"}, {"measurement": "Fold diff", "setting": "human C2 S473A", "result": 1, "unit": "fold"}, {"measurement": "Fold diff", "setting": "human C2 N471A", "result": 1, "unit": "fold"}, {"measurement": "Fold diff", "setting": "human C2 K711A", "result": 5, "unit": "fold"}]}
